Earlier results on two substances are cited in paper PMC12390062.

Data set [1] concerns the target nicotinic acetylcholine receptor α-δ interface α-δ interface (Mus musculus) (UniProt P04756).
Data set [2] has as its target nicotinic acetylcholine receptor α-γ interface α-γ interface (Mus musculus) (UniProt P04756).
The target of data set [3] is nicotinic acetylcholine receptor α7 (Gallus gallus) (UniProt P22770).

As for α-conotoxin MI (from UniProt P01521), the Kd is 0.00062 µM in data set [1] and 20 µM in data set [2].

With “wNTX5 (Group 3b (ii) toxin) (from UniProt O42255)”, the Kd in data set [3] is 90 µM.
